Measured values: the Human Domainome abundance scans (Beltran et al. 2025)
± gives the uncertainty stated by the source.

B1: Lysine-specific demethylase 2B, residues 656 to 722; numbered along this chain, Q8NHM5 (parent)
chain: LPHTAVCLVCGEAGKEDTVEEEEGKFNLMLMECSICNEIIHPGCLKIKESEGVVNDELPNCWECPKC

Variants of: B1
Test: abundance fitness (aPCA) (normalised: wild type 0, dead -1); higher = more abundant; growth selection in yeast, the domain comes from the species named
Conditions: Homo sapiens

Variant | abundance fitness
LPHTAVCLVCGEAGKEDTVEEEEGKFNLMLMECSICNEIIHFGCLKIKESEGVVNDELPNCWECPKC [P42F] | -0.272 ± 0.19
LPHTAVCLVCGEAGKEDTVEEEEGKFNLMLMECSICNEIIHKGCLKIKESEGVVNDELPNCWECPKC [P42K] | -0.285 ± 0.15
LPHTAVCLVCGEAGKEDTVEEEEGKFNLMLMECSICNEIIHEGCLKIKESEGVVNDELPNCWECPKC [P42E] | -0.537 ± 0.093
LPHTAVCLVCGEAGKEDTVEEEEGKFNLMLMECSICNEIIHDGCLKIKESEGVVNDELPNCWECPKC [P42D] | -0.644 ± 0.22
LPHTAVCLVCGEAGKEDTVEEEEGKFNLMLMECSICNEIIHGGCLKIKESEGVVNDELPNCWECPKC [P42G] | -0.302 ± 0.076
LPHTAVCLVCGEAGKEDTVEEEEGKFNLMLMECSICNEIIHAGCLKIKESEGVVNDELPNCWECPKC [P42A] | -0.34 ± 0.09
LPHTAVCLVCGEAGKEDTVEEEEGKFNLMLMECSICNEIIHCGCLKIKESEGVVNDELPNCWECPKC [P42C] | -0.355 ± 0.21
LPHTAVCLVCGEAGKEDTVEEEEGKFNLMLMECSICNEIIHHGCLKIKESEGVVNDELPNCWECPKC [P42H] | 0.019 ± 0.18
LPHTAVCLVCGEAGKEDTVEEEEGKFNLMLMECSICNEIIWPGCLKIKESEGVVNDELPNCWECPKC [H41W] | -0.913 ± 0.14
LPHTAVCLVCGEAGKEDTVEEEEGKFNLMLMECSICNEIIKPGCLKIKESEGVVNDELPNCWECPKC [H41K] | -0.278 ± 0.16
LPHTAVCLVCGEAGKEDTVEEEEGKFNLMLMECSICNEIIAPGCLKIKESEGVVNDELPNCWECPKC [H41A] | -0.931 ± 0.22
LPHTAVCLVCGEAGKEDTVEEEEGKFNLMLMECSICNEIIRPGCLKIKESEGVVNDELPNCWECPKC [H41R] | -0.943 ± 0.12
LPHTAVCLVCGEAGKEDTVEEEEGKFNLMLMECSICNEIICPGCLKIKESEGVVNDELPNCWECPKC [H41C] | -0.767 ± 0.25
LPHTAVCLVCGEAGKEDTVEEEEGKFNLMLMECSICNEIIQPGCLKIKESEGVVNDELPNCWECPKC [H41Q] | -0.952 ± 0.21
LPHTAVCLVCGEAGKEDTVEEEEGKFNLMLMECSICNEIITPGCLKIKESEGVVNDELPNCWECPKC [H41T] | -0.784 ± 0.16
LPHTAVCLVCGEAGKEDTVEEEEGKFNLMLMECSICNEIIGPGCLKIKESEGVVNDELPNCWECPKC [H41G] | -0.903 ± 0.12
LPHTAVCLVCGEAGKEDTVEEEEGKFNLMLMECSICNEIISPGCLKIKESEGVVNDELPNCWECPKC [H41S] | -1.03 ± 0.27
LPHTAVCLVCGEAGKEDTVEEEEGKFNLMLMECSICNEIIYPGCLKIKESEGVVNDELPNCWECPKC [H41Y] | -0.912 ± 0.33
LPHTAVCLVCGEAGKEDTVEEEEGKFNLMLMECSICNEIILPGCLKIKESEGVVNDELPNCWECPKC [H41L] | -0.925 ± 0.14
LPHTAVCLVCGEAGKEDTVEEEEGKFNLMLMECSICNEIIEPGCLKIKESEGVVNDELPNCWECPKC [H41E] | -0.997 ± 0.18

Variant | abundance fitness
LPHTAVCLVCGEAGKEDTVEEEEGKFNLMLMECSICNEIIVPGCLKIKESEGVVNDELPNCWECPKC [H41V] | -1.21 ± 0.44
LPHTAVCLVCGEAGKEDTVEEEEGKFNLMLMECSICNEYIHPGCLKIKESEGVVNDELPNCWECPKC [I39Y] | 0.076 ± 0.11
LPHTAVCLVCGEAGKEDTVEEEEGKFNLMLMECSICNELIHPGCLKIKESEGVVNDELPNCWECPKC [I39L] | -0.125 ± 0.073
LPHTAVCLVCGEAGKEDTVEEEEGKFNLMLMECSICNEWIHPGCLKIKESEGVVNDELPNCWECPKC [I39W] | -0.157 ± 0.095
LPHTAVCLVCGEAGKEDTVEEEEGKFNLMLMECSICNEPIHPGCLKIKESEGVVNDELPNCWECPKC [I39P] | -0.055 ± 0.13
LPHTAVCLVCGEAGKEDTVEEEEGKFNLMLMECSICNEQIHPGCLKIKESEGVVNDELPNCWECPKC [I39Q] | 0.257 ± 0.089
LPHTAVCLVCGEAGKEDTVEEEEGKFNLMLMECSICNERIHPGCLKIKESEGVVNDELPNCWECPKC [I39R] | 0.138 ± 0.065
LPHTAVCLVCGEAGKEDTVEEEEGKFNLMLMECSICNENIHPGCLKIKESEGVVNDELPNCWECPKC [I39N] | 0.056 ± 0.15
LPHTAVCLVCGEAGKEDTVEEEEGKFNLMLMECSICNEVIHPGCLKIKESEGVVNDELPNCWECPKC [I39V] | 0.013 ± 0.074
LPHTAVCLVCGEAGKEDTVEEEEGKFNLMLMECSICNETIHPGCLKIKESEGVVNDELPNCWECPKC [I39T] | -0.053 ± 0.13
LPHTAVCLVCGEAGKEDTVEEEEGKFNLMLMECSICNEMIHPGCLKIKESEGVVNDELPNCWECPKC [I39M] | 0.119 ± 0.11
LPHTAVCLVCGEAGKEDTVEEEEGKFNLMLMECSICNEHIHPGCLKIKESEGVVNDELPNCWECPKC [I39H] | 0.245 ± 0.16
LPHTAVCLVCGEAGKEDTVEEEEGKFNLMLMECSICNEAIHPGCLKIKESEGVVNDELPNCWECPKC [I39A] | -0.029 ± 0.068
LPHTAVCLVCGEAGKEDTVEEEEGKFNLMLMECSICNECIHPGCLKIKESEGVVNDELPNCWECPKC [I39C] | -0.216 ± 0.23
LPHTAVCLVCGEAGKEDTVEEEEGKFNLMLMECSICNEEIHPGCLKIKESEGVVNDELPNCWECPKC [I39E] | -0.256 ± 0.085
LPHTAVCLVCGEAGKEDTVEEEEGKFNLMLMECSICNEKIHPGCLKIKESEGVVNDELPNCWECPKC [I39K] | -0.021 ± 0.12
LPHTAVCLVCGEAGKEDTVEEEEGKFNLMLMECSICNESIHPGCLKIKESEGVVNDELPNCWECPKC [I39S] | -0.129 ± 0.086
LPHTAVCLVCGEAGKEDTVEEEEGKFNLMLMECSICNEGIHPGCLKIKESEGVVNDELPNCWECPKC [I39G] | -0.141 ± 0.067
LPHTAVCLVCGEAGKEDTVEEEEGKFNLMLMECSICNEIHHPGCLKIKESEGVVNDELPNCWECPKC [I40H] | 0.1 ± 0.2
LPHTAVCLVCGEAGKEDTVEEEEGKFNLMLMECSICNEINHPGCLKIKESEGVVNDELPNCWECPKC [I40N] | 0.171 ± 0.15
